# A protein production outcome set (Wang et al. 2014)
# Test: label from the status in PepcDB records
row,Sequence,protein production
1,MTRLTRFAVAPLHSMTRRLADVASARVAPDLVVTGARVLSTYSERIHANREVWITGGRVAAVKPAGTARKAWSGVALYDAAGAIIAPGLVDPHIHIESSMVTACAYAEAALLNGTTTIFCDSHEIGNVMDVAGVEAMLEDARQAPLSIFLTVPSTVPATSAELETAGGDLTPDKIAGLFDRWPEAVALGEKMDFVPVTMGDERSHAILAAALKRGRPVSGHVYGREFVAAYAASGVTDTHEAIDRDIADDLLDAGVWVFLRGGPPTTPWHSLPQAIRTITELGASHKRTAVCTDDRDADDLLLFGLDWVVREAVKAGMSPEQAWSMGSLHGATRFGMEGDIGGLGGGRRADLVLMDDQLKPQCTWYGGELVVEHGKITPRLDQALSQRYQYPKAAYATVKLPEKVKLTPELPAKACTVNAIKTALPGITLIHEKVAIEPAKDWPTLFARYGLCFVTVVERHGKSAGNVAYGLLKDFGLKRGAVASSVGHDSHNIIVAGTNEPDMQVAIAAIKEHQGAVCVVADGKVRALVPLPIAGLLSDKRVTEVAEEVKVLKKEWAEAGCTIPYMGFNLIPLSVIPEIRITDKGLVLVPQMELAPLFE,failed
2,MTRPIFYDPTGRRSLLAKRSLAVVFLAVILAALAFATTLVAVPRQRALSLPQPHFEAASLHRGHGLSRLRSWLPRLHLQRSQEALAIGFYQPRSDASFQSLSRHGNQLDWVVPALLNVAGPEHRLAVSNDPRFDSFVAAGHHHYKVLPMVQNVGGDGWDGANVARILENATERHALERQLADYVARRGDAGLVLDFEDLPATAMRPYVAFLRETNALLPAGAQLAVTAPAGEDDWPIAALGRAADKVILMAYDEHWQNGAAGPIASQTWFTNEVEKSARALPADRLVIALGSYGYDWHQGGTDALSLSDAWLAAHDSHAPIIFDKASGNAGFAYEQDGVSHTVWMLDAATDWNEMLAVQRLGIGNLALWRLGTEDPGFWNDLAALRSGKAPDLSRLVSEGGNDVEGTGEILRITATPVAGSRTVAFGDQHLIRDERYGDLPTPFVVRRTGAANPKLLALTFDDGPDPKWTPKVLSTLEAAHVPATFFVIGENALVRPDLLRRMVADGDEIGNHTYTHPNLAGSSEAETRLEINATQRLVQAYTGRSMTLFRAPYFGDAEPTTADELQPALRAQQAGYTIVGLHVDPNDWQNPGTDEIVRQVVNQIHNATEQSSSNVILLHDGGGDRSQTVAALPRIVAVLRAEGYSFVTASQLVGIPPQAAMPRLSSSDLAAVRVDVAAFLALDGLVTLFSWLFFVAIALGIARAVIMAGLAWWQSRSPRAEPPAFEPTVSVIIPAWNEERVIAASVERVLASDYPALQVIVADDGSKDATSAVVARHFGHDPRVTLLTLANGGKAAALNRALRHATGEVVIALDADTQFEPLTIRRLARWFADPRIGAVAGDARVGNRVNLVTRWQAVEYITAQNLERRALAGFDAMTVVPGAVGAWRRAALDSVGGYPENTLAEDQDLTIAIQRKGWRVTYDPRAVAWTEAPQTFRALARQRYRWAFGTLQCLWKHRKVITSRKPAGLGLVGLPQAWLFQIAFAAISPLIDGALIASIISTVVRVVQHGWAQTQGDLGRMAIYWSLFTAIDVICGWIAYRLDDKRPPYPAHLLVAQRIVYRQIMYWVVLRALASAIGGWIVGWGKLERTGTVSPAPERA,failed
3,PITDERVYESIGHYGGETVKIVRIEKARDIPLGATVRNEMDSVIISRIVKGGAAEKSGLLHEGDEVLEINGIEIRGKDVNEVFDLLSDMHGTLTFVLIPS,not failed
4,MSSNAQVRPPLPPFTRESAIEKIRLAEDGWNSRDPERVSLAYTLDTQWRNRAEFAHNREEAKAFLTRKWAKELDYRLIKELWAFTDNRIAVRYAYEWHDDSGNWFRSYGNENWEFDEQGLMARRFACINDMPIKAQERKFHWPLGRRPDDHPGLSELGLLEHHHHHH,not failed
5,MNMYRVLLIILGWISVVLATLGVVLPLLPTTPFLLLAAWCFARSSPRFHNWLLHRSWFGSYLRHWQQHRALPPGAKWKAVTMILLTFALSLWLVKLVWVRILLLVILTILLTFMLRLPVVDPEQQTQGADPKR,failed
6,MEEQVLGQSHDCETAADKSDQKLQDVTLAKTTHWGKIKAMLEEKIDELSQGLHRVASDNAALTRSLQERSEMIVKISEERSKAEADVEKLKD,failed
7,MGRVLDRIEVVAEEIRGQAVQSEADCRLTDAAAGLLRDSGAIRLLQPRLYGGYEVHPREFAETVMGVAALDGASGWVTGIVGVHPWELAFADPQVQEEIWGEDNDTWMASPYAPMGVATPVDGGYVLKGRWSFSSGTDHCQWAFLGAMVGDGEGGIATPSSLHVILPRTDYQIVEDTWDVIGLRGTGSKDLIVDGAFVPGYRTLNAAKVMDGRAQKEAGRPEPLFNMPYSCMFPLGITAAVIGITEGALACHIAVQKDRVAITGQKIKEDPYVLSAIGESAAEINASRVSLIETADRFYDKVDAGKEITFEERAIGRRTQIAAAWRAVRAADEIFARAGGGALHYKTPMQRFWRDAHAGLAHAVHVPGPTNHASALTQLGGEPQGMMRAMI,not failed
8,MFGTPSSSPSFGTPSSTPAFGTSSPAFGTPSATPAFGTPSNPSFSSGGFGSSLFSSPFSSQQPQQQQQQQQQQQPSSLFQQQPSSNFGFQSPFNNTAQQQQQTPFPNAQLTTQMAPVAPIPYSLADRDVQAIIEAYKEDPTNPKYAFQHLLFSVTEPQYRVKPAAVSDIMWAEAMSKLEGMDSTERERLWPQLVQGFKDLSQRLKLQDEVLVSDRDRIKTTQSNVKMLQRHLQASTFPSIERLRQKEQSLQRRMLRVMRIIEGLEGKGFRLPLTKGEAELSEKLTAITRQVKGPGAELSRRVQSLQTISRAQANSIAAGSSLYLPGSTKIDEQSLIDMQEVLQQETEAIGRLGNVLKRDMRDMEIMVAEDTEMALDS,failed
9,MFFKQFYDKHLSQASYLIGCQKTGEAMIIDPIRDLSSYIRVADEEGLTITHAAETHIHADFASGIRDVAIKLNASIYVSGESDDTLGYKNMPNQTHFVQHNDDIYVGNIKLKVLHTPGHTPESISFLLTDEGAGAQVPMGLFSGDFIFVGDIGRPDLLEKAVKVEGSSEIGAKQMFKSIESIKDLPNYIQIWPGHGAGSPCGKSLGAIPTSTLGYEKQTNWAFSENNEATFIDKLISDQPAPPHHFAQMKKINQFGMNLYQPYTVYPATNTNRLTFDLRSKEAYHGGHIEGTINIPYDKNFINQIGWYLNYDQEINLIGEYHLVSKATHTLQLIGYDDVAGYQLPQSKIQTRSIHSEDITGNESHILDVRNDNEWNNGHLSQAVHVPHGKLLETDLPFNRNDVIYVHCQSGIRSSIAIGILEHKGYHNIINVNEGYKDIHLSLEHHHHHH,failed
10,MNDLKRLPYEPVKGLLPRPAVGTSERVITLPEPDRTSGMPLMGTLWLRKSTREFDQQPLPLKQLSELLWAAAGVNRSLGGGRTAPSPYGETVIDVYVALPAGLYRYDPVHHCLELKRAADLRSMTGYQDFVGMAPLDLVFVANHGRMQEMPPKLRETFSAAAAGAMAENAYLYCASAGLGAVVRGWLNRRQLAEHMSLNEDEEPILSQTIGRAASHVTTTQA,not failed
11,MFPFENQRLPISALIHKKNHSRLQPHPLFEEQPMKILLIGANGTIGSAVARELEQRHEVVRIGRTSGDFQVDISDSQSIRALFEKTGRFDALVCAAGNVTFAPLGEMTAEHFSLGLEDKLMGQVNLLLIGREYANDGASFTFTTGVLSHDPIRSGASAALVNGAIDSFVRAAAIELPRGLRVNSISPNVLLEAMGSYAPYFRGFKPVPAADVALAYAKSVEGLQTGQTYRVG,failed
12,MNLVQDKVTIITGGTRGIGFAAAKIFIDNGAKVSIFGETQEEVDTALAQLKELYPEEEVLGFAPDLTSRDAVMAAVGQVAQKYGRLDVMINNAGITSNNVFSRVSEEEFKHIMDINVTGVFNGAWCAYQCMKDAKKGVIINTASVTGIFGSLSGVGYPASKASVIGLTHGLGREIIRKNIRVVGVAPGVVNTDMTNGNPPEIMEGYLKALPMKRMLEPEEIANVYLFLASDLASGITATTVSVDGAYRP,not failed
13,MYPVDLHMHTVASTHAYSTLSDYIAQAKQKGIKLFAITDHGPDMEDAPHHWHFINMRIWPRVVDGVGILRGIEANIKNVDGEIDCSGKMFDSLDLIIAGFHEPVFAPHDKATNTQAMIATIASGNVHIISHPGNPKYEIDVKAVAEAAAKHQVALEINNSSFLHSRKGSEDNCREVAAAVRDAGGWVALGSDSHTAFTMGEFEECLKILDAVDFPPERILNVSPRRLLNFLESRGMAPIAEFADL,not failed
